According to the DeepSol protein solubility set:

Experiment: soluble on expression in E. coli; label from the status in PepcDB or PDB records

Sequence	soluble on expression in E. coli
MGSDKIHHHHHHMMFESHSQIISAAEELLTKRYGGSQSLTDWDRLAGSGAAVVLRARVASSPFFPNRSVVVKYIPPTGRLIDESTLMREVVSYQFTTSLNADVRPGPVLLAYDVEQHLLVISDSGDGDTFAELLERHENDVRIGILRNLGEAIGKLHVGTAAKEQDFNILLHRMLVKHPEVQPMHGFRERLLRLNIGVGITLVEQAGITVPDVVKSFAQEAMRRLVTGQHRAFTPFDLSPDNIIVADRTEFLDYEWAGFRDAAFDVASVIAGFPQYLFARPVSDAEADIFIESWVQQVGDMWPNVRNTPRLHARILTALIGWAFSSVTMMYLGSSSEAYEELFHKIGTEKATAFDVEEIVKEIAATGDILLGTFVPETSEDADLVALLRQDLYETFEALNRFAQRESDTRFPVVADFAQAVVDLLTDDESTE	not soluble
MGSDKIHHHHHHVQDKNFDKLAHKFAKNIYGTPKGEIRAAVLWRDLSSALAPFGDKKLRILDAGGGFGFFSQKLARLGHEVVLCDISQEMLIQAQAHIDASTEPLNIELIHAPIQALSVEQNGVFDLILCHAVVEWLTDAQRTMEGLLTMLKPNGLFSLMFYNKEAMRFHALISGNFDYVAADLKVKKKVRLTPTHPLYIQEVKQWFMDWEMTLISQSGVRVIHDYLKKSQAADFDYQKLLQMELEYSQHEPYISLGRYVHFLGISRGT	not soluble
SVAADSAATESLGRIGSLSQVSGVLGCQWGDEGKGKLVDILAQHFDIVARCQGGANAGHTIYNSEGKKFALHLVPSGILNEDTTCVIGNGVVVHLPGLFKEIDGLESNGVSCKGRILVSDRAHLLFDFHQEVDGLRESELAKSFIGTTKRGIGPAYSSKVIRNGIRVGDLRHMDTLPQKLDLLLSDAAARFQGFKYTPEMLREEVEAYKRYADRLEPYITDTVHFINDSISQKKKVLVEGGQATMLDIDFGTYPFVTSSSPSAGGICTGLGIAPSVVGDLIGVVKAYTTRVGSGPFPTENLGTGGDLLRLAGQEFGTTTGRPRRCGWLDIVALKFSCQINGFASLNLTKLDVLSDLNEIQLGVAYKRSDGTPVKSFPGDLRLLEELHVEYEVLPGWKSDISSVRNYSDLPKAAQQYVERIEELVGVPIHYIGIGPGRDALIYK	soluble
MDNFSLLTTPWLPVRFKDGSTGKLAPVDLADENVVDIAATRADLQGAAWQFLLGLLQCSIAPKRYKNWEDIWFDGLHADVLHKALAPLEHAFQFGAETPSFMQDFEPLSGEKVSIASLLPEIPGAQTTKFNKDHFVKRGVTERFCPHCAALALFSLQLNAPAGGKGYRTGLRGGGPLTTLVELQEYQGERQTPLWRKLWLNVMPQDTADLPLPDQCDATVFPWLAATRTSEQANAVTTPEQVNKLQAYWGMPRRIRLDFATLQSGCCDICGAESDELLGFMTVKNYGVNYDGWRHPLTPYRAPVKDQNAFFSVKPQPGGLIWRDWLGLSQNNQTEANYESPAQVVKVFNARSLTDVKAGIWGFGADFDNMKIRCWYEHHFPLLMTEGLIPDLRKAVQTAARLLSLLRSALKEAWFADAKGARGDFSFIDIDFWNLTQGRFLNLIHDLENGHKPDERLNKWQRELWLFTRHYFDDHVFTNPYESSDLERIMTARKKYFTTSAEKQSAKAAKAKKQEAAE	not soluble
GMLEFTKRSLMNKYNINERVLELYERALNDVEKEFKYYDEIREYNQLKVLKAFQEERISESHFTNSSGYGYNDIGRDSLDRVYANIFNTESAFVRPHFVNGTHAIGAALFGNLRPNDTMMSICGMPYDTLHDIIGMDDSKKVGSLREYGVKYKMVDLKDGKVDINTVKEELKKDDSIKLIHIQRSTGYGWRKSLRIAEIAEIIKSIREVNENVIVFVDNCYGEFVEEKEPTDVGADIIAGSLIKNIGGGIATTGGYIAGKEEYVTQATFRVTVPGIGGECGSTFGVMRSLYEGLFMAPHVTIEAVKGAVFCARIMELAGFDVLPKYNDKRTDIIQAIKFNDEKKLIDFIKGIQTASPVDSFVQCEAWDMPGYEDKVIMAAGTFVQGASIELSADAPIREPYIGYLQGGLTFDHAKLGVLIALSKLIM	soluble
MQMPRRFNTYCPHCNEHQEHEVEKVRSGRQTGMKWIDRQRERNSGIGNDGKFSKVPGGDKPTKKTDLKYRCGECGKAHLREGWRAGRLEFQE	soluble
MTEKKSDRTAAKKRSEQAVHELVTRIDTHPGDADAYYELATVLVDLKSFAQAEELLMKALGLFQAQPAVVDKLHYGLGNVYYAAEDYPKAIQQFDSLGAQWKGAGYLMLAQSYMANGDHKRALAFALTALASQPDDVATLQVVAENLLALGNMAQAAQYYDQLLAIDPKNGRAIFDRGLVAMVQGTPYADYFERAQTLDPQYFEQGQQRLADIEKFMQQTPDSDQQLEHHHHHH	soluble
MTSYDQIWETFLNNCETSDFDVPQQEEDIYKSIRNAILHFNNRLRDNLKADNSTETVNRELSEDDLLILAHFLRYIFLLNKKTLFENTWQPFTNDVGIKNFGTQLNSLKQSVMDQKDEIERLILNAAVDYLLEHHHHHH	not soluble
MEIPTAKPQKEHEFLNRIVGDWIMTASSGHEAYDPNDPEQVFIEKVRSIGGLWIIGEGTGKMPDGTSMTAVITVGFDPAKGNFVGTWVGSMMTNLWVYKGWLEEDGKTLTLEAEGPAFDGSGDTATYHDVLVLHDDNHRSFSGSVKQPDGTFKTFMTSEFRRKT	soluble
MRKEVEQLALMGAMPDETDEPTDVLIDKYADLLGKITKPITLDEAHILIKLFPPTALYGIEWTLLHLIESVYPETEFIKYKELINECNSVEFREMLVQRLNNSQQNKVTNK	not soluble
MAHHHHHHMGGQSSVTTTPEQIPVNGKSLDWGPPPDDIPEEERDNEELVLQTWAFCKAKPSPAQNYRSDVEERKRRQSMLWRKRASFIELDCGEDSFFVSNTYKVIGVADGVGGWRDEGVDASHFANSLMENAKHFSETHRKELNPEVILQSAFDKVLHDKVVKAGSSTACVVALQKDSSGEHYLDVANVGDSGVLVVRNRQVQHRVHEKVHGFNAPFQLAVLPPHLQGRAFSDRVSDATREKIPVQRGDVVITGTDGLFDNRFNISLAADAGWIGHVQGSALERVPLVGLLLGPIFANDKVAYVDPQRVAQRIVQDAYKTSLDESAHTPWASMLRKFGVEDAKGGKVDDITLVLSRVTTREELNATSTW	not soluble
MTYPYRTTMALNTYQYRETTMIDPKKIEQIARQVHESMPKGIREFGEDVEKKIRQTLQAQLTRLDLVSREEFDVQTQVLLRTREKLALLEQRISELENRSTEIKKQPDPETLPPTLLEHHHHHH	not soluble
MGSDKIHHHHHHMLPGSRSLSKELGINRKTVQAVYEELEAQGWLVTRPRKGTFVADVLPEKKPHIEPRADRKVSNKPIIQQVAQRPHNDGVPDPRLIPYELFSRAYRHALIKITQNQYMGYGDPRGMAELRQALKQMLSMERFMNVAEDEICVVRGSQMGIFLASRALPNRQGVIVVEELYYPSAVKAFQSNGFQVVSVKLDDQGIVIEDLERILKEHSVAAIYTTPHHQYPTTVTMTMSRRLQLLELSKKWGFYIIEDDYDHEFHYDSRPMPPLASLPHSELVIHVGSLSKVFAPGIRLGYIVAAPTIIQTITEDILLIDRQGNNITELALADLMQRGEIKRHIRKMKKIYQLRRDHALAEFQRVFAESIEIQPPAGGMALWVKFQKSFTQDQLIKLKELNIDTEQKFKQKECANHCIRFGFAALSEKEITSLIETLNEAL	not soluble
GPGSMALATTGYPALASSHSFANASTSVMTASAMAVVRRAATTTGASAATTTPQVVHYSKLGMDGFTDIKFNTAADELLELVETKVDALDSAAVEDVSCNGGVLTLETTDRGTFILNKQAPNVQLWLSSPISGPHHYDMITVTQGGHEKVSWKSDHDGHDLVKKLEEELTEVLGTDFKV	soluble
MGSDKIHHHHHHMDFALEQYHSAKDLLIFELRKFNPIVLVSSTIVATYVLTNLRHMHLDEMGIRKRLSTWFFTTVKRVPFIRKMIDKQLNEVKDELEKSLRIVDRSTEYFTTIPSHSVGRTEVLRLAAIYDDLEGPAFLEGRVSGAVFNREDDKDEREMYEEVFGKFAWTNPLWPKLFPGVRIMEAEVVRMCCNMMNGDSETCGTMSTGGSISILLACLAHRNRLLKRGEKYTEMIVPSSVHAAFFKAAECFRIKVRKIPVDPVTFKVDLVKMKAAINKRTCMLVGSAPNFPFGTVDDIEAIGQLGLEYDIPVHVDACLGGFLLPFLEEDEIRYDFRVPGVSSISADSHKYGLAPKGSSVVLYRNKELLHNQYFCDADWQGGIYASATMEGSRAGHNIALCWAAMLYHAQEGYKANARKIVDTTRKIRNGLSNIKGIKLQGPSDVCIVSWTTNDGVELYRFHNFMKEKHWQLNGLQFPAGVHIMVTMNHTHPGLAEAFVADCRAAVEFVKSHKPSESDKTSEAAIYGLAQSIPDRSLVHEFAHSYIDAVYALTE	not soluble
